A word on the Kd: it is the constant that tells how readily two partners part at equilibrium. Read a high Kd as a looser complex.

This experiment concerns the target SARS-CoV-2 spike S1 (SARS-CoV-2, wild type (Wuhan-Hu-1), UniProt P0DTC2). Description: SPR.

B1: S1-RBD-14_(E89K) (VHH)
VHH: QVQLVESGGGLVQAGGSVRLSCAASGRSFSINPMGWFRQAPGKEREFVAAISWSGSKTVYVDSVKGRFSISRDNAKNTVYLQMNSLKPEDTAVYHCAVASRGPVYGANYVPGPHEYEYWGQGTQVTVS
In turn, B1 displayed a Kd of 0.3 nM.

B2: S1-RBD-42_(E88K) (VHH)
VHH: QVQLVESGGGLVQAGGSLRLSCVVSGSTFSNTFMDWYRQAPGKQREFVATISSGGTTNYAVFVKGRFTISRDGAKNTVYLQMNSLKPEDTAVYYCHAALPIGGDYWGQGTQVTVS
In the case of B2, the affinity, expressed as Kd, was 0.1 nM. This Kd lies about 3-fold lower than the previous one.

(Values after paper PMC12042621 (Structure (London, England : 1993), 2025).)
